# US20160024208A1 (Regeneron, published 2016)
# Positions count from the first letter of the chain named.
# T1: Native Nav1.7 (3-1) peptide, human (human)
# T1 construct: Synthetic peptide (Celtek), unbiotinylated; also called Human Nav1.7 3-1 native; Nav1.7 3-1 native peptide
# T1 peptide: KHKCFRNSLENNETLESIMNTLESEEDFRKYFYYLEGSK
# T2: N-Term Biotin Nav1.7 (3-1) peptide, mouse (mouse, not fully specified; N-terminal biotin attached via a G4S linker)
# T2 construct: Synthetic peptide; also called Mouse Nav1.7 3-1 N-term biotin
# T2 peptide: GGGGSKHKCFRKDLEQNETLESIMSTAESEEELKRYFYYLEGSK
# T3: N-Term Biotin Nav1.7 (3-1) peptide, mulatta (mulatta (monkey), not fully specified; N-terminal biotin attached via a G4S linker)
# T3 construct: Synthetic peptide; also called Mulatta Nav1.7 3-1 N-term biotin; monkey
# T3 peptide: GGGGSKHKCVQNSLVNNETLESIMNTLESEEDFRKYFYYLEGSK
# T4: Native Nav1.7 (3-1) peptide, rat (rat)
# T4 construct: Synthetic peptide; also called Rat Nav1.7 3-1 native
# T4 peptide: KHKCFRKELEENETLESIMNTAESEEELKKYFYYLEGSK
# T5: N-Term Biotin-Nav1.7 (3-1) peptide, human (human, not fully specified; N-terminal biotin attached via a G4S linker)
# T5 construct: ELISA peptide
# T5 peptide: T3 peptide with V10F, Q11R, V15E
# T6: C-term Biotin Nav1.7 (3-1) peptide, human (human, not fully specified; C-terminal biotin attached via a G4S linker)
# T6 construct: Synthetic peptide; also called Human Nav1.7 3-1 C-term biotin
# T6 peptide: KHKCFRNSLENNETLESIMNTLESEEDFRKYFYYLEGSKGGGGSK
# B1: H4H438B (antibody, V domains shown)
# VH: QVQLQQWGAGLLTPSETLSLTCAVYGGSFSGHYWSWIRQPPGKGLEWIGEINPRGSTNYKPSLKSRVTISVDTSKNQFSLNLRSVTAADTAMYYCAREGNLAARLWFFDLWGRGTLVTVSS
# VL: DIQMTQSPSSLSASVGDRGTITCRTSQSIRSYLNWYQQKPGKAPKLLIYAASSLQSGVPSRFSGSGSGTDFTLTISSLQPEDFATYFCQQSYSSPFTFGQGTKVEIKR
# notes: Fully human antibody
# B2: H1H1068B (antibody, V domains shown)
# VH: QVQLVQSGAEVKKPGASVKVSCKASGYTFTSYGVSWVRQAPGQGLEWMGWISAYNGNTNYAQKLQGRVTMTTDTSTSTAYMELTSLRSDDTAVYYCARNWGDYWGQGTLVTVSS
# VL: not shown
# notes: Fully human antibody; the full pair is used
# B3: H4H385B (antibody, V domains shown)
# VH: QVQLVESGGGVVQPGRSLRLSCAASGFTFSSYGMHWVRQAPGKGLEWVALISYVGSNKHYADSVKGRFTISRDNSKNTLYLQMNSLRAEDTAVYYCAKSRGYSYGLDYWGQGTLVTVSS
# VL: DIQMTQSPDSLAVSLGERATINCKSSQTVLHSSNNQNNLVWYQQKPGQPPKLLIYWASTRESGVPDRFSGSGSGTDFTLTISSLQAEDVAIYYCQQYYSTPYTFGQGTKLEIKR
# notes: Fully human antibody
# B4: H4H391B (antibody, V domains shown)
# VH: B3 VH with E6Q, L50V, V54E, Y94F, K98Q, D107G
# VL: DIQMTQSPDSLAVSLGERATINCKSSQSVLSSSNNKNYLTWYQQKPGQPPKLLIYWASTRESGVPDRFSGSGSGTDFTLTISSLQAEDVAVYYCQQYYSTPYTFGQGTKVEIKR
# B5: H4H395B (antibody, V domains shown)
# VH: EVQLVESGGGLVQPGGSLRLSCAASGFTFSSYGMSWVRQVPGKGLEWVSAISGSGGSTYYVDSVKGRFTISRDNFKNTLYLQMNSLRVEDTAVYYCAKDVGYCSTTSCRGDAFDVWGQGTMVTVSS
# VL: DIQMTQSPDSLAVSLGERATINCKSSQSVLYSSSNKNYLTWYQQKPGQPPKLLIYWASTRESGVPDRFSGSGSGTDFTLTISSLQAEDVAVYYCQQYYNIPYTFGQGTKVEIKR
# notes: Fully human antibody; 685/687 at r237); the full pair is used; also called H4H395N
# B6: H4H434B (antibody, V domains shown)
# VH: QVQLVQSGGGLVQPGGSLRLSCAASGFTFSNYAMSWVRQAPGKGLEWVSAISGSGDNTYYADSVRGRFTISRDNSKNTLYLQMNSLRAEDTAIYYCAKDPHSSRWPGFFDLWGRGTLVTVSS
# VL: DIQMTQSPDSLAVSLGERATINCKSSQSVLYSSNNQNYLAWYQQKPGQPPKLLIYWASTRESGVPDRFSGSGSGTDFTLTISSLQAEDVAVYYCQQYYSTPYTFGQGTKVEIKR
# notes: Fully human antibody
# B7: H4H441B (antibody, V domains shown)
# VH: QVQLQQWGAGLLKPSETLSLTCAVYGGSFSGHYWTWIRQPPGKGLEWIGEINHRGNTNYNPSLKSRATISVDTSKNQFSLKLSSVTAADTAVYYCAREGSLAARLWFFDLWGRDTPVTVSS
# VL: B1 VL with I21V, T25A, S28N, S31T, F87Y, S93G, S94T, F96Y
# notes: as for B2
# B8: H4H382B (antibody, V domains shown)
# VH: B3 VH with Q1E, E6Q, A23E, L50V, V54D, A61T, Y95F, K98Q, D107G
# VL: B3 VL with T28S, H31S, Q36E, N38Y, S62P, S71G, I91V, Y98H, T100I, L110V
# B9: H4H368B (antibody, V domains shown)
# VH: B3 VH with Q1E, E6Q, L50V, V54Q, G55E, A61V, D107G
# VL: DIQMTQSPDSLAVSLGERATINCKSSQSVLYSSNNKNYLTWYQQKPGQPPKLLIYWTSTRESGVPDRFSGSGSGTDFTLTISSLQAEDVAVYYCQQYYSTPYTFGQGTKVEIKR
# B10: H1H1025B (antibody, V domains shown)
# VH: QVQLVESGGGVVQPGRSLRLSCAASGFTFSNYGMHWVRQAPGKGLEWVAAIWFDGSNKKYVDSVKGRFTISRDNSKNTLYLQMNSLRAGDTAVYYCTRDRSGSFDYWGQGTLVTVSS
# VL: DIQLTQSPSSLSASVGDRVTITCRASQGIRNDLGWYQQKPGKAPKRLIYAASSLQSGVPSRFSGSGSGTEFTLTISSLQPEDFATYYCLQHNSYPCTFGQGTKVEIKR
# notes: Fully human antibody; 722/724 at r244); the full pair is used
# B11: H4H443B (antibody, V domains shown)
# VH: QVQLVESGGGLVQPGRSLRLSCAASGFTFDDYAMHWVRQVPGKGLEWVSGINWNSGSIGYADSVKGRFTISRDNAKNSLFLQMNSLRAEDTALYYCAKDIEYYDILTGYYSYYIMDVWGQGTTVTVSS
# VL: DIQMTQSPSFLSASVGDRVTITCWASQGISSYLAWYQQKPGKAPKLLIYASSTLQSGVPSRFSGSGSGTEFTLTISSLQPEDFATYYCQQFNSYPPTFGQGTKVEIKR
# Target: full-length human Nav1.7 fused at its N-terminus to GFP, expressed in HEK293 cells (human, UniProt Q15858 1-1988)
# Assay: cell-based or functional assay
row,Binder,"Current blocking (Average % inhibition), IonWorks Quattro, 223 nM antibody"
1,B1,43.5%
2,B2,34%
3,B3,31%
4,B4,48%
5,B5,57%
6,B6,17.5%

# Target: T1, Native Nav1.7 (3-1) peptide, human
# Assay: SPR, captured antibody, peptide analyte
# Protocol: (§1) The binding affinities of anti-Naᵥ 1.7 antibodies to Naᵥ 1.7 loop peptides were determined by Biacore. For monovalent kinetic experiments, antibodies were captured through the Fc region via a goat anti-Fc-coupled biosensor surface, and the peptides (as analyte) were injected over this captured antibody surface. For bivalent (avidity-driven) kinetic experiments, biotinylated peptides corresponding to the Naᵥ 1.7 3-1, 3-3, or paddle loop sequences were captured on a NeutrAvidin sensor surface, and anti-Naᵥ 1.7 antibodies (as analyte) were injected over this surface. Following the capture step, each analyte was individually injected at several concentrations over its respective capture surface, and changes in bound surface units (RU) were monitored. The dissociation rate is independent of the concentration of analyte used in the experiment, and the dissociation rate constant (kd) was determined from the change in antibody-bound analyte RU over time. The Biacore kinetic data were obtained using a double referencing procedure. The double referencing was conducted by first subtracting any interaction of the analyte over the reference surface (i.e., the anti-Fc coupled surface alone or the NeutrAvidin surface alone), thereby correcting for nonspecific binding to capture surface and for refractive index changes. Control buffer injections (no analyte) over the antibody- or peptide-captured surfaces were also performed to allow subtraction of RU signal changes resulting from the natural dissociation of captured binding partner from the sensor surface. The kinetic parameters were obtained by globally fitting the data for all concentrations tested for a given peptide or antibody to a 1:1 binding model using Biacore T100 Evaluation Software version 2.0.2. The KD was calculated as the dissociation rate constant divided by the association rate constant (KD=kd/kₐ). The dissociative half-life (t_{1/2}) was calculated from the dissociation rate constant (t_{1/2}=In2/kd).
Binder,Kd,t1/2
B1,2.73 nM,30.2 min
B7,6.58 nM,12.5 min
B2,236 nM,0.16 min
B3,188 nM,0.8 min
B8,38.9 nM,3.3 min
B5,13.2 nM,20.7 min
B6,21.4 nM,2.5 min

# Target: T2, N-Term Biotin Nav1.7 (3-1) peptide, …
# Assay: SPR, captured antibody, peptide analyte
# Protocol: as §1
Binder,binding result,Kd,t1/2
B1,no binding,,
B7,no binding,,
B3,no binding,,
B9,,12 nM,964 min
B6,,8.98 nM,3.4 min
B10,no binding,,

# Target: T3, N-Term Biotin Nav1.7 (3-1) peptide, …
# Assay: SPR, captured antibody, peptide analyte
# Protocol: as §1
Binder,Kd,t1/2
B1,0.54 nM,111 min
B7,0.439 nM,128 min
B2,42.6 nM,0.34 min
B3,29.3 nM,3.1 min
B8,13.1 nM,6 min
B5,2.5 nM,34 min
B6,3.68 nM,4.7 min

# Target: T4, Native Nav1.7 (3-1) peptide, rat
# Assay: SPR, captured antibody, peptide analyte
# Protocol: as §1
Binder,Kd,t1/2,binding result
B1,77 nM,0.56 min,
B7,178 nM,0.39 min,
B3,,,no binding
B9,127 nM,0.32 min,
B5,,,no binding
B6,107 nM,0.17 min,
B11,176 nM,0.48 min,
B10,,,no binding

# Target: T5, N-Term Biotin-Nav1.7 (3-1) peptide, …
# Assay: ELISA on coated peptide, antibody 1 ug/ml, OD450 grade
# Protocol: (§2) Anti-Naᵥ 1.7 antibodies were tested for their ability to bind to the Naᵥ 1.7 peptides. The various peptides were coated overnight onto 96-well Nunc Immunosorp plates at a concentration of 4 μg/mL in PBS, followed by blocking for 1 hour in a suitable blocking agent. For biotinylated peptides, avidin was first coated on Nunc Immunosorp plates at 2 μg/mL in PBS overnight, followed by blocking as described, and the plate was then coated with biotinylated peptides at a concentration of 0.4 μg/mL and incubated for 1 hour at room temperature. Purified anti-Naᵥ 1.7 antibodies were diluted to a final concentration of 0.1 μg/mL and 1.0 μg/mL and added to the wells of the coated microtiter plates followed by incubation for 1 hour at room temperature. Bound antibodies were detected with horseradish peroxidase (HRP) conjugated anti-mouse or anti-human IgG (Jackson Immuno Research Lab, West Grove, Pa.) depending on the antibody species and developed by colorimetric response using tetramethylbenzidine (TMB) substrate (BD Biosciences). Absorbance was read at OD₄₅₀ on a plate reader for 0.1 second.
# (§3) Values in Table 11 represent absolute binding ranges (at OD450) to plate-coated peptides for antibodies added at 1 μg/ml as follows: OD450<0.2: −; 0.2<OD450<1: +; 1<OD450<2: ++; 2<OD450<4: +++; NT: Not Tested.
row,Binder,OD450
1,B4,2 to 4 od
2,B8,2 to 4 od

# Target: T3, N-Term Biotin Nav1.7 (3-1) peptide, …
# Assay: as above
# Protocol: as §2, §3
row,Binder,OD450
1,B4,2 to 4 od
2,B8,2 to 4 od

# Target: T4, Native Nav1.7 (3-1) peptide, rat
# Assay: as above
# Protocol: as §2, §3
row,Binder,OD450
1,B9,2 to 4 od
2,B11,1 to 2 od

# Target: T6, C-term Biotin Nav1.7 (3-1) peptide, …
# Assay: SPR, captured biotin-peptide, antibody analyte
# Protocol: as §1
Binder,Kd,t1/2
B1,0.614 nM,118 min
B7,0.703 nM,86.9 min
B2,200 nM,0.3 min
B3,0.443 nM,73.2 min
B8,1.04 nM,92.9 min
B5,0.0252 nM,108 min
B6,0.334 nM,114 min
